This is an account of results in paper PMC3799435, “Dissecting the interactions of SERRATE with RNA and DICER-LIKE 1 in Arabidopsis microRNA precursor processing” (Nucleic Acids Research, 2013).

Conditions in all cases: both partners purified
The target of experiment [1] is T1, DICER-LIKE 1 (DCL1), untagged recombinant (Arabidopsis thaliana, UniProt Q9SP32 1-1909).
T1 construct: DICER-LIKE 1 (DCL1) of Arabidopsis thaliana, 214 kDa; cDNA amplified with primers from the start codon to the stop codon; one silent mutation introduced; no extra residues at the N-terminus after SUMOstar protease; also called native DCL1; source: Sf9 insect cells (baculovirus), purified (Ni-NTA, StrepTrap, SUMOstar protease, Ni-NTA flow-through, Superdex 200); not shown: His6, N-terminal, …
T1 sequence (Q9SP32 whole entry): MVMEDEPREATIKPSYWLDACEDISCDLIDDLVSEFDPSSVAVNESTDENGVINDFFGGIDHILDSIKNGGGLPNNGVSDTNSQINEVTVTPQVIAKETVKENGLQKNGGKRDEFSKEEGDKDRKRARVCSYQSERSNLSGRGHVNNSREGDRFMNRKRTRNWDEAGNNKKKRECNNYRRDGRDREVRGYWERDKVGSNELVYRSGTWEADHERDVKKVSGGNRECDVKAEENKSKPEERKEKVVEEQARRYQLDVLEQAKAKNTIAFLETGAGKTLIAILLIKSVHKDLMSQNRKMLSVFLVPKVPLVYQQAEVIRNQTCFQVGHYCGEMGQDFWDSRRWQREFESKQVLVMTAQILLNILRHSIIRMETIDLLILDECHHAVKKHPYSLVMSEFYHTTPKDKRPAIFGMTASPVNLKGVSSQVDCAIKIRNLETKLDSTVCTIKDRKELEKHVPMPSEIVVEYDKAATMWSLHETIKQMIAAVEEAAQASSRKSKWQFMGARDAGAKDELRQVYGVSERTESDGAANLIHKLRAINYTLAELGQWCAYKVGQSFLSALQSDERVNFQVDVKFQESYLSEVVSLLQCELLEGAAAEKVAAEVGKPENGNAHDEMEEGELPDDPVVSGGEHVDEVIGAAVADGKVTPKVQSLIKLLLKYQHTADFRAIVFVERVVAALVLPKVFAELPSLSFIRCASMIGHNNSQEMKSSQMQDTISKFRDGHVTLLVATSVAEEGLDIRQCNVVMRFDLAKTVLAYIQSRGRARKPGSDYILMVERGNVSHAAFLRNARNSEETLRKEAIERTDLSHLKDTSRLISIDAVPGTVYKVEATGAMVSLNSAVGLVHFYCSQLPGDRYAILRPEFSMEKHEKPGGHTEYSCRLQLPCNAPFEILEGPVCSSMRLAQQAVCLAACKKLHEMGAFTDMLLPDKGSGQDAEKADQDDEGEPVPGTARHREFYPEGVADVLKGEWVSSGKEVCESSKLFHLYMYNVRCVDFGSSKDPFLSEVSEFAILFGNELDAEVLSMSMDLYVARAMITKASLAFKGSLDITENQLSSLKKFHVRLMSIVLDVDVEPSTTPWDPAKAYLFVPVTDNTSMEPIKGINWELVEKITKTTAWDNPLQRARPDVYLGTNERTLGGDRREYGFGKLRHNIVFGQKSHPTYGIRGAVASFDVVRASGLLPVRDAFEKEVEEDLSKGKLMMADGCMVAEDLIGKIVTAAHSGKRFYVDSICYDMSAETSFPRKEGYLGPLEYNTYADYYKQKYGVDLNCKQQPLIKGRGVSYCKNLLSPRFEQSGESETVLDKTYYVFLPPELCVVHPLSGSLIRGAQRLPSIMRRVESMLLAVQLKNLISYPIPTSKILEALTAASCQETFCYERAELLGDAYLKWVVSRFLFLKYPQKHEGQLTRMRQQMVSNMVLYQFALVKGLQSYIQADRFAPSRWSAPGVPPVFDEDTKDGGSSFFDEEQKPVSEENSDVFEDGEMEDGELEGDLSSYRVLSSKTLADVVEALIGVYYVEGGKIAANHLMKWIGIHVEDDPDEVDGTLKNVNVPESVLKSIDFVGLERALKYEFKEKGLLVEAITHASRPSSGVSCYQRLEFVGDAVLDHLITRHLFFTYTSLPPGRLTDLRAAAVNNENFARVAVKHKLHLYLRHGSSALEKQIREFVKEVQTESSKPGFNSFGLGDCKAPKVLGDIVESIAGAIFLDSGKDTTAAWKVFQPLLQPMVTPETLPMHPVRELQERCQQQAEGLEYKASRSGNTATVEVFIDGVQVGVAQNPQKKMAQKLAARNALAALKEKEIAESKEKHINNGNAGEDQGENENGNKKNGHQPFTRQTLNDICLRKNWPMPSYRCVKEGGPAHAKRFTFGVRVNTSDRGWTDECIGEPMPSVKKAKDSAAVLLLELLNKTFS
The experiment can be described thus: SPR; Biacore T100; about 1750 RU of DCL1 immobilised via amine groups on a CM5 chip, no RNA; SE and its mutants injected for 70 s at 20 nM; 20 mM Tris-HCl (pH 7.0), 50 mM NaCl, 2 mM β-ME, 0.005% surfactant P20.

Experiment [2] addresses T1, DICER-LIKE 1 (DCL1), untagged …. The experiment in a line: SPR; Biacore T100; 1750 RU of DCL1 immobilised via amine groups on a CM5 chip; SE injected for 70 s at 20 nM; 20 mM Tris-HCl (pH 7.0), 2 mM β-ME, 0.005% surfactant P20, 50 mM or 150 mM NaCl.
The target is the same in experiment [3]. The experiment can be described thus: SPR; Biacore T100; about 1200 RU of DCL1 (injected at 16 nM) bound beforehand to 60 RU of biotin-labelled forked RNA on an SA chip; SE and its mutants then injected for 70 s at 20 nM; 20 mM Tris-HCl (pH 7.0), 50 mM NaCl, 2 mM β-ME, 0.005% surfactant P20; RU of mutants normalised to the RU of DCL1 bound.

B1: SE1–701, C-terminally truncated hexahistidine-tagged SERRATE (domain or fragment, Arabidopsis thaliana, UniProt Q9ZVD0 1-701, looked up)
chain: MADVNLPPSDSVDNRLPEKSTSSSPPPPPPSSSLPQQEQEQDQQQLPLRRERDSRERRDERDIERPPPNRRERDRSPLPPPRRDYKRRPSLSPPPPYRDRRHSPPQRRSPPQKRYRRDDNGYDGRRGSPRGGYGPPDRRFGYDHGGGYDREMGGRPGYGDERPHGRFMGRYQDWEGGRGGYGDASNSGNPQRDGLMSYKQFIQELEDDILPSEAERRYQEYKSEYITTQKRAFFNTHKEEDWLKNKYHPTNLLSVIERRNDLAQKVAKDFLLDLQSGTLDLGPAVTALNKSGRTSEPNSEDEAAGVGKRKRHGMGGAKENELLSAAPKAPSFTSDPKRILTDVEQTQALVRKLDSEKKIEENVLQGSETEKSGREKLHSGSTGPVVIIRGLTSVKGLEGVELLDTLVTYLWRVHGLDYYGKVETNEAKGLRHVRAEGKVSDAKGDENESKFDSHWQERLKGQDPLEVMAAKEKIDAAATEALDPHVRKIRDEKYGWKYGCGAKGCTKLFHAAEFVYKHLKLKHTELVTELTTKVREELYFQNYMNDPNAPGGQPATQQSGPRDRPIRRKPSMENRLRDDRGGRRERDGRANGNDRNDRSEDQQRGDNDGGNPGEVGYDAFGGQGGVHVPPFLSDINPPPMLMPVPGAGPLGPFVPAPPEVAMQMFRDPSGPNPPFEGSGRGGPAPFLLSPAFRQDPRRLRS
notes: No cleavage step of the tag is described in the purification; also called C-terminal domain deletion; source: Sf9 insect cells (baculovirus), purified (TALON, Superdex 200)
Regarding B1, in experiment [1], the binding result is recorded as “binds”.

B2: SERRATE (SE), untagged recombinant (natural protein, Arabidopsis thaliana, UniProt Q9ZVD0 1-720, looked up)
chain: MADVNLPPSDSVDNRLPEKSTSSSPPPPPPSSSLPQQEQEQDQQQLPLRRERDSRERRDERDIERPPPNRRERDRSPLPPPRRDYKRRPSLSPPPPYRDRRHSPPQRRSPPQKRYRRDDNGYDGRRGSPRGGYGPPDRRFGYDHGGGYDREMGGRPGYGDERPHGRFMGRYQDWEGGRGGYGDASNSGNPQRDGLMSYKQFIQELEDDILPSEAERRYQEYKSEYITTQKRAFFNTHKEEDWLKNKYHPTNLLSVIERRNDLAQKVAKDFLLDLQSGTLDLGPAVTALNKSGRTSEPNSEDEAAGVGKRKRHGMGGAKENELLSAAPKAPSFTSDPKRILTDVEQTQALVRKLDSEKKIEENVLQGSETEKSGREKLHSGSTGPVVIIRGLTSVKGLEGVELLDTLVTYLWRVHGLDYYGKVETNEAKGLRHVRAEGKVSDAKGDENESKFDSHWQERLKGQDPLEVMAAKEKIDAAATEALDPHVRKIRDEKYGWKYGCGAKGCTKLFHAAEFVYKHLKLKHTELVTELTTKVREELYFQNYMNDPNAPGGQPATQQSGPRDRPIRRKPSMENRLRDDRGGRRERDGRANGNDRNDRSEDQQRGDNDGGNPGEVGYDAFGGQGGVHVPPFLSDINPPPMLMPVPGAGPLGPFVPAPPEVAMQMFRDPSGPNPPFEGSGRGGPAPFLLSPAFRQDPRRLRSYQDLDAPEEEVTVIDYRSL
notes: SERRATE (SE) of Arabidopsis thaliana, 81 kDa, 720 amino acids; cDNA amplified with primers from the start codon to the stop codon; also called native SE; untagged SE; source: Sf9 insect cells (baculovirus), purified (Ni-NTA, StrepTrap, SUMOstar protease, Ni-NTA flow-through, Superdex 200); not shown: His6, N-terminal, cleaved; Strep-tag II, N-terminal, cleaved; SUMOstar, N-terminal, cleaved
As to B2, the “fold reduction in RUmax from 50 to 150 mM NaCl” value in experiment [2] is 5 fold.

B3: N-terminally hexahistidine-tagged wild-type SERRATE (SE) (natural protein, Arabidopsis thaliana, UniProt Q9ZVD0 1-720, looked up)
chain: B2 chain
notes: SERRATE (SE) of Arabidopsis thaliana, 720 amino acids; tagged protein 86 kDa; primers from the start codon to the stop codon; myc tag and Strep tag II were inserted in the NotI site of the modified pENTR-D/TOPO vector, then moved to pDEST10; also called His-tagged SE; hexahistidine-tagged SE; source: Sf9 insect cells (baculovirus), purified (TALON, Superdex 200); not shown: His6, N-terminal, kept
Take B3: the “stoichiometry N” value in experiment [1] is 0.7 SE:DCL1 molar ratio; in experiment [3], 2.4 SE:DCL1 molar ratio.
